# T1: 4H3974-bA
# T1 chain: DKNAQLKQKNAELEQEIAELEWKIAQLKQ
# T2: 4H850-bA
# T2 chain: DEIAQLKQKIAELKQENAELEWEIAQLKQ
# T3: 4H3858-bA
# T3 chain: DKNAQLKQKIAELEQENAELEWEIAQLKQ
# T4: 4H1899-bA
# T4 chain: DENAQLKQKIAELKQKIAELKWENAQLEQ
# T5: 4H3631-bA
# T5 chain: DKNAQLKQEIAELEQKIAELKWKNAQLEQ
# T6: 4H1710-bA
# T6 chain: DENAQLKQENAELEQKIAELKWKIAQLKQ
# T7: 4H619-bA
# T7 chain: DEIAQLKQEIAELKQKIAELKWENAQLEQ
# T8: 4H3638-bA
# T8 chain: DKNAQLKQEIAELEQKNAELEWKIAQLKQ
# T9: 4H1629-bA
# T9 chain: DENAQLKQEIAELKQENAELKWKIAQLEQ
# T10: 4H3172-bA
# T10 chain: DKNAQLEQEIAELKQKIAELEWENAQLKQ
# T11: 4H3628-bA
# T11 chain: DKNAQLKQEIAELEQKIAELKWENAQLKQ
# T12: 4H570-bA
# T12 chain: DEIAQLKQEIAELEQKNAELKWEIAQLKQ
# T13: 4H3129-bA
# T13 chain: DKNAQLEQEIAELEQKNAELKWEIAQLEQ
# T14: 4H3414-bA
# T14 chain: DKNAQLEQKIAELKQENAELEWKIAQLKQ
# T15: 4H1449-bA
# T15 chain: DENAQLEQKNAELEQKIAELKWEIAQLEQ
# T16: 4H1985-bA
# T16 chain: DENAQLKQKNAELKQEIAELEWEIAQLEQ
# T17: 4H584-bA
# T17 chain: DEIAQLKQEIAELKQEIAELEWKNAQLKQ
# T18: 4H3817-bA
# T18 chain: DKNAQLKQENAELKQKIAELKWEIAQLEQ
# T19: 4H906-bA
# T19 chain: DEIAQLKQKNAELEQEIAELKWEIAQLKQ
# T20: 4H3613-bA
# T20 chain: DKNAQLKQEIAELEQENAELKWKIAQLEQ
# T21: 4H1544-bA
# T21 chain: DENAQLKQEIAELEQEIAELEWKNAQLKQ
# T22: 4H1804-bA
# T22 chain: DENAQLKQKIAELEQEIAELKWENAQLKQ
# T23: 4H3185-bN
# T23 chain: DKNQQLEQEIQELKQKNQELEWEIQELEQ
# T24: 4H568-bN
# T24 chain: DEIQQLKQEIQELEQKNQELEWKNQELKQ
# T25: 4H3782-bN
# T25 chain: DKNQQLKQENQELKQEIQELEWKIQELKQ
# T26: 4H754-bN
# T26 chain: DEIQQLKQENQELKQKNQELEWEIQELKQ
# T27: 4H331-bN
# T27 chain: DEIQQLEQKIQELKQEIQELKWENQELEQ
# T28: 4H687-bN
# T28 chain: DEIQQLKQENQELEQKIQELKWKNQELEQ
# T29: 4H454-bN
# T29 chain: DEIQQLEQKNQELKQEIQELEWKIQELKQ
# T30: 4H3855-bN
# T30 chain: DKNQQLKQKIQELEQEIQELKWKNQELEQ
# T31: 4H3112-bN
# T31 chain: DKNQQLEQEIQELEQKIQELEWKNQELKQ
# T32: 4H3427-bN
# T32 chain: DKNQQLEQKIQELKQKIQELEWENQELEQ
# T33: 4H2610-bN
# T33 chain: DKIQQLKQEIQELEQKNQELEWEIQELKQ
# T34: 4H72-bN
# T34 chain: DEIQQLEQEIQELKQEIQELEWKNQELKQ
# T35: 4H1845-bN
# T35 chain: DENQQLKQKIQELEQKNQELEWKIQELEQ
# T36: 4H918-bN
# T36 chain: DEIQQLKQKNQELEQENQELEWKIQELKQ
# T37: 4H338-bN
# T37 chain: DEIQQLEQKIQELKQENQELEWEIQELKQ
# T38: 4H717-bN
# T38 chain: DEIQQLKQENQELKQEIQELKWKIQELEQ
# T39: 4H607-bN
# T39 chain: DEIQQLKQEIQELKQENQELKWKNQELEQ
# T40: 4H3843-bN
# T40 chain: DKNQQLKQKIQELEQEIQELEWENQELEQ
# T41: 4H2667-bN
# T41 chain: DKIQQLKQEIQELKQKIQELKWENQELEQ
# T42: 4H2729-bN
# T42 chain: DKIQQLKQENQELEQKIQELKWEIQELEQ
# T43: 4H619-bN
# T43 chain: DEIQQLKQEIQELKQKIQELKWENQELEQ
# T44: 4H2576-bN
# T44 chain: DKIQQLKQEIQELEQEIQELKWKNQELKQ
# T45: 4H953-bN
# T45 chain: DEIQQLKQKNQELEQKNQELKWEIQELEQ
# T46: 4H4001-bN
# T46 chain: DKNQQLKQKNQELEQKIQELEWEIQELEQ
# T47: 4H570-bN
# T47 chain: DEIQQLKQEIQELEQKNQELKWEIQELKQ
# T48: 4H3354-bN
# T48 chain: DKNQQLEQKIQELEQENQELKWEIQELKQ
# T49: 4H370-bN
# T49 chain: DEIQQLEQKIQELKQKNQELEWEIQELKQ
# T50: 4H2442-bN
# T50 chain: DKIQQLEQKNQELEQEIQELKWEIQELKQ
# T51: 4H908-bN
# T51 chain: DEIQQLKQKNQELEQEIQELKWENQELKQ
# T52: 4H2618-bN
# T52 chain: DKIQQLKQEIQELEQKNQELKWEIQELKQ
# T53: 4H883-bN
# T53 chain: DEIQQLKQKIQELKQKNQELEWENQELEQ
# T54: 4H2697-bN
# T54 chain: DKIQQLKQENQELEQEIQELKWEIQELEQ
# T55: 4H462-bN
# T55 chain: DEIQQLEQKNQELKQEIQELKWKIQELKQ
# T56: 4H3606-bN
# T56 chain: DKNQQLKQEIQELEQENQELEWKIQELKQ
# T57: 4H3189-bN
# T57 chain: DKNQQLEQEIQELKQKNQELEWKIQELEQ
# T58: 4H2588-bN
# T58 chain: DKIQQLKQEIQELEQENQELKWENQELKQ
# T59: 4H797-bN
# T59 chain: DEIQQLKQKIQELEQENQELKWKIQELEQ
# T60: 4H967-bN
# T60 chain: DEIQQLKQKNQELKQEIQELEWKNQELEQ
# Experiments:
# Test in all cases: two-hybrid library CCNG1;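 note: natural log of median RNA to DNA barcode read ratio; higher means stronger binding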
# [1] = target: T1, 4H3974-bA
# [2] = target: T2, 4H850-bA
# [3] = target: T3, 4H3858-bA
# [4] = target: T4, 4H1899-bA
# [5] = target: T5, 4H3631-bA
# [6] = target: T6, 4H1710-bA
# [7] = target: T7, 4H619-bA
# [8] = target: T8, 4H3638-bA
# [9] = target: T9, 4H1629-bA
# [10] = target: T10, 4H3172-bA
# [11] = target: T11, 4H3628-bA
# [12] = target: T12, 4H570-bA
# [13] = target: T13, 4H3129-bA
# [14] = target: T14, 4H3414-bA
# [15] = target: T15, 4H1449-bA
# [16] = target: T16, 4H1985-bA
# [17] = target: T17, 4H584-bA
# [18] = target: T18, 4H3817-bA
# [19] = target: T19, 4H906-bA
# [20] = target: T20, 4H3613-bA
# [21] = target: T21, 4H1544-bA
# [22] = target: T22, 4H1804-bA
# [23] = target: T23, 4H3185-bN
# [24] = target: T24, 4H568-bN
# [25] = target: T25, 4H3782-bN
# [26] = target: T26, 4H754-bN
# [27] = target: T27, 4H331-bN
# [28] = target: T28, 4H687-bN
# [29] = target: T29, 4H454-bN
# [30] = target: T30, 4H3855-bN
# [31] = target: T31, 4H3112-bN
# [32] = target: T32, 4H3427-bN
# [33] = target: T33, 4H2610-bN
# [34] = target: T34, 4H72-bN
# [35] = target: T35, 4H1845-bN
# [36] = target: T36, 4H918-bN
# [37] = target: T37, 4H338-bN
# [38] = target: T38, 4H717-bN
# [39] = target: T39, 4H607-bN
# [40] = target: T40, 4H3843-bN
# [41] = target: T41, 4H2667-bN
# [42] = target: T42, 4H2729-bN
# [43] = target: T43, 4H619-bN
# [44] = target: T44, 4H2576-bN
# [45] = target: T45, 4H953-bN
# [46] = target: T46, 4H4001-bN
# [47] = target: T47, 4H570-bN
# [48] = target: T48, 4H3354-bN
# [49] = target: T49, 4H370-bN
# [50] = target: T50, 4H2442-bN
# [51] = target: T51, 4H908-bN
# [52] = target: T52, 4H2618-bN
# [53] = target: T53, 4H883-bN
# [54] = target: T54, 4H2697-bN
# [55] = target: T55, 4H462-bN
# [56] = target: T56, 4H3606-bN
# [57] = target: T57, 4H3189-bN
# [58] = target: T58, 4H2588-bN
# [59] = target: T59, 4H797-bN
# [60] = target: T60, 4H967-bN
binder,measurement,setting,value
DENAQLEQKNAELEQKIAELKWEIAQLEQ [4H1449-bA],interaction score,[1],2.19
same,interaction score,[2],-0.723
same,interaction score,[3],-0.848
same,interaction score,[4],-0.25
same,interaction score,[5],0.473
same,interaction score,[6],0.786
same,interaction score,[7],-1.52
same,interaction score,[8],-1.83
same,interaction score,[9],-1.11
same,interaction score,[10],-1.06
same,interaction score,[11],-0.201
same,interaction score,[12],-1.93
same,interaction score,[13],-0.874
same,interaction score,[14],-1.03
same,interaction score,[15],-0.613
same,interaction score,[16],0.787
same,interaction score,[17],-1.3
same,interaction score,[18],-0.857
same,interaction score,[19],-0.904
same,interaction score,[20],-0.891
same,interaction score,[21],-0.535
same,interaction score,[22],-0.732
DENQQLKQKIQELEQKNQELEWKIQELEQ [4H1845-bN],interaction score,[23],-0.558
same,interaction score,[24],-1.33
same,interaction score,[25],-1.24
same,interaction score,[26],-1.28
same,interaction score,[27],-1.66
same,interaction score,[28],-1.5
same,interaction score,[29],-0.965
same,interaction score,[30],-0.717
same,interaction score,[31],-0.777
same,interaction score,[32],-1.53
same,interaction score,[33],-0.755
same,interaction score,[34],-0.603
same,interaction score,[35],0.0957
same,interaction score,[36],-1.04
same,interaction score,[37],-0.586
same,interaction score,[38],-0.951
same,interaction score,[39],-1.09
same,interaction score,[40],-0.731
same,interaction score,[41],0.755
same,interaction score,[42],-0.274
same,interaction score,[43],-0.153
same,interaction score,[44],-1.34
same,interaction score,[45],-1.04
same,interaction score,[46],-1
same,interaction score,[47],-2.11
same,interaction score,[48],-0.397
same,interaction score,[49],-1.16
same,interaction score,[50],-0.755
same,interaction score,[51],-0.834
same,interaction score,[52],-0.877
same,interaction score,[53],-0.686
same,interaction score,[54],-1.96
same,interaction score,[55],-0.741
same,interaction score,[56],-0.857
same,interaction score,[57],-0.856
same,interaction score,[58],-1.62
same,interaction score,[59],-0.559
same,interaction score,[60],-1.31
